Measured values taken from US20250295799A1 (Zymeworks, published 2025).
Residue numbers refer to the chain shown, from its start.

B1: v37574 (M3-H18L6) (antibody, human IgG1, kappa)
heavy: not shown
light: EIVLTQSPATLSLSPGERATISCRSSQSLRHSNGNTYLQWYQQKPGQAPRLLIYKVSNRFSGVPARFSGSGSGTDFTLTISSLEPEDFAVYFCYQSKHVPYTFGGGTKVEIKRTVAAPSVFIFPPSDEQLKSGTASVVCLLNNFYPREAKVQWKVDNALQSGNSQESVTEQDSKDSTYSLSSTLTLSKADYEKHKVYACEVTHQGLSSPVTKSFNRGEC
notes: Humanized full-size IgG1/kappa antibody, heavy chains without C-terminal lysine
B2: H18L6_LC_G34K mAb, v40207 (antibody, human IgG1, kappa, V domains shown)
VH: QVQLVQSGAEVKKPGSSVKVSCKASGYTFTDYEMHWVKQAPGHGLEWIGAIDPETGDTAYNQKFKGKATLTADTSTSTAYMELSSLRSEDTAVYYCTRYFSFAYWGQGTLVTVSS
VL: EIVLTQSPATLSLSPGERATISCRSSQSLRHSNKNTYLQWYQQKPGQAPRLLIYKVSNRFSGVPARFSGSGSGTDFTLTISSLEPEDFAVYFCYQSKHVPYTFGGGTKVEIKR
notes: Full-size IgG1/kappa
B3: H18L6_LC_G34Q mAb, v40208 (antibody, human IgG1, kappa, V domains shown)
VH: B2 VH
VL: B2 VL with K34Q
notes: Full-size IgG1/kappa
B4: H18L6_LC_G34R mAb, v40206 (antibody, human IgG1, kappa, V domains shown)
VH: B2 VH
VL: B2 VL with K34R
notes: Full-size IgG1/kappa

What was measured:
[1] = molecular target: T1, human GPC3 on cells (human, UniProt P51654 25-554); test: flow cytometry, CHO-S cells transfected with human GPC3
T1 construct: whole, on cells; One molecule is used for transfected CHO-S cells and for tumour cell lines that carry GPC3; the cell line is named under assay or readout; also called CHO-S Human GPC3; GPC3 on HepG2, JHH-7, JHH-5, NCI-H446, FU-97, Huh-6, Huh-7, MKN-45 cells
Procedure: (§1) Briefly, CHO—S cells were transiently transfected for −24 hours with a pTT5-based expression plasmid encoding human GPC3 or cynomolgus monkey GPC3, 0.5 μg DNA per 1 million cells, using the Neon™ Transfection System (Thermo Fisher Scientific Corp., Waltham, MA), to transiently express human or cynomolgus monkey GPC3. Following transfection, cells were seeded at 50,000 cells/well in V-bottom 96-well plates and treated with antibody for 24 hours at 4° C. to prevent internalization. […] Following incubation and washing, fluorescence was detected by flow cytometry on a BD LSRFortessa™ Cell Analyzer (BD Biosciences, Franklin Lake, NJ) with 1,000 minimum events collected per well. AF647/APC-A GeoMean (fluorescence signal geometric mean, proportional to anti-Human AF647 binding) in live cell population was plotted against antibody concentration using GraphPad Prism Version 9 (GraphPad Software, San Diego, CA). The Bmax and Kd values were derived from the “Specific binding with Hill slope” nonlinear regression curve fit in GraphPad Prism Version 9.

[2] = molecular target: T1, human GPC3 on cells; test: flow cytometry, CHO-S cells transfected with human GPC3; apparent Kd
Procedure: as §1

[3] = molecular target: T2, cynomolgus monkey GPC3 on CHO-S cells (cynomolgus monkey, UniProt A0A2K5VK50 24-553); test: flow cytometry, CHO-S cells transfected with cynomolgus monkey GPC3
T2 construct: whole, on cells; also called CHO-S Cyno GPC3
Procedure: as §1

[4] = molecular target: T1, human GPC3 on cells; test: flow cytometry, JHH-7 cells
Procedure: (§2) Cell lines investigated included GPC3-hi HepG2 and JHH-7 cells, GPC3-mid JHH-5 cells, as well as GPC3-negative SNU-601 cells.
(§3) Briefly, cells were seeded at 50,000 cells/well in V-bottom 96-well plates and treated with antibody for 24 hours at 4° C. to prevent internalization. […] Following incubation and washing, fluorescence was detected by flow cytometry on a BD LSRFortessa™ Cell Analyzer (BD Biosciences, Franklin Lake, NJ) with 1,000 minimum events collected per well. AF647/APC-A GeoMean (fluorescence signal geometric mean, proportional to anti-Human AF647 binding) in live cell population was plotted against antibody concentration using GraphPad Prism Version 9 (GraphPad Software, San Diego, CA). The Bmax, Curve Hill Slope (h) and Kd values were derived from the “Specific binding with Hill slope” nonlinear regression curve fit in GraphPad Prism Version 9.

[5] = molecular target: T1, human GPC3 on cells; test: flow cytometry, JHH-5 cells
Procedure: as §2, §3

[6] = molecular target: T2, cynomolgus monkey GPC3 on CHO-S cells; test: flow cytometry, CHO-S cells transfected with cynomolgus monkey GPC3; apparent Kd
Procedure: as §1

[7] = molecular target: T1, human GPC3 on cells; test: flow cytometry, HepG2 cells
Procedure: as §2, §3

[8] = molecular target: T3, human glypican-3 (GPC3) (human, UniProt P51654 25-554); test: flow cytometry on JHH-7 cells; antibody in mouse plasma, day 0
T3 construct: Endogenous on JHH-7, JHH-5, HepG2 and NCI-H446 tumour cells, or transiently expressed on CHO-S cells from a pTT5 plasmid; also called hGPC3; huGPC3
Procedure: (§4) For binding cells were seeded at 50,000 cells/well in V-bottom 96-well plates and treated with antibody for 24 hours at 4° C. to prevent internalization. […] Following incubation and washing, fluorescence was detected by flow cytometry on a BD LSRFortessa™ Cell Analyzer (BD Biosciences, Franklin Lake, NJ) with 1,000 minimum events collected per well. AF647/APC-A GeoMean (fluorescence signal geometric mean, proportional to anti-Human AF647 binding) in live cell population was plotted against antibody concentration using GraphPad Prism Version 9 (GraphPad Software, San Diego, CA). The Bmax, Curve Hill Slope (h) and Kd values were derived from the “Specific binding with Hill slope” nonlinear regression curve fit in GraphPad Prism Version 9.

[9] = molecular target: T3, human glypican-3 (GPC3); test: flow cytometry on JHH-5 cells; antibody after 14 days in mouse plasma at 37 C
Procedure: as §4

[10] = molecular target: T4, cynomolgus monkey glypican-3 (GPC3) (cynomolgus monkey, UniProt A5A6P7 25-554 (Pan troglodytes entry)); test: flow cytometry on CHO-S cells transfected with cynomolgus GPC3;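 note: antibodies incubated 24 h at 4 °C with transiently transfected cells, binding read as AF647 geometric mean fluorescence of live cells, GFP-transfected cells as negative control, Hill-slope specific-binding fit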
T4 construct: Transiently expressed on CHO-S cells; also called cynoGPC3; CynoGPC3-CHO
Procedure: (§5) Briefly, CHO—S cells were transiently transfected for −24 hours with a pTT5-based expression plasmid encoding human GPC3 or cynomolgus monkey GPC3, 0.5 μg DNA per 1 million cells, using the Neon™ Transfection System (Thermo Fisher Scientific Corp., Waltham, MA), to transiently express human or cynomolgus monkey GPC3. Cells transfected with GFP were used as negative transfection controls. Following transfection, cells were seeded at 50,000 cells/well in V-bottom 96-well plates and treated with antibody for 24 hours at 4° C. to prevent internalization. […] Following incubation and washing, fluorescence was detected by flow cytometry on a BD LSRFortessa™ Cell Analyzer (BD Biosciences, Franklin Lake, NJ) with 1,000 minimum events collected per well. AF647/APC-A GeoMean (fluorescence signal geometric mean, proportional to anti-Human AF647 binding) in live cell population was plotted against antibody concentration using GraphPad Prism Version 9 (GraphPad Software, San Diego, CA). The Bmax and Kd values were derived from the “Specific binding with Hill slope” nonlinear regression curve fit in GraphPad Prism Version 9.

[11] = molecular target: T3, human glypican-3 (GPC3); test: flow cytometry on JHH-7 cells; antibody after 14 days in mouse plasma at 37 C
Procedure: as §4

[12] = molecular target: T3, human glypican-3 (GPC3); test: flow cytometry on JHH-5 cells (GPC3-mid);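 note: antibody binding to cells at 4 °C for 24 h, detected with anti-human AF647 as geometric mean fluorescence of live cells versus antibody concentration, fitted by specific binding with Hill slope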
Procedure: as §3

[13] = molecular target: T3, human glypican-3 (GPC3); test: flow cytometry on CHO-S cells transfected with human GPC3;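 note: antibody binding to transiently transfected CHO-S cells after 24 hours at 4 °C, read as geometric mean fluorescence of anti-human AF647 in live cells, fitted against antibody concentration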
Procedure: as §5

[14] = molecular target: T3, human glypican-3 (GPC3); test: cell-based or functional assay
[15] = molecular target: T3, human glypican-3 (GPC3); test: flow cytometry on JHH-5 cells; antibody in mouse plasma, day 0
Procedure: as §4

[16] = molecular target: T3, human glypican-3 (GPC3); test: flow cytometry on JHH-7 cells (GPC3-high);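 note: antibody binding at 4 °C for 24 h, detected with anti-human AF647 secondary, geometric mean fluorescence of live cells versus antibody concentration, fitted as specific binding with Hill slope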
Procedure: as §3

[17] = molecular target: T3, human glypican-3 (GPC3); test: cell-based or functional assay; remark: listed apart in the source
Throughout, for JHH-5 Internalization (MFI), Day 0 in mouse plasma: test concentration or dose not given here.
Throughout, for JHH-5 Internalization (MFI), Day 14 in mouse plasma: test concentration or dose not given here.
Throughout, for JHH-5 Internalization (MFI): test concentration or dose not given here.
Throughout, for JHH-7 Internalization (MFI), Day 0 in mouse plasma: test concentration or dose not given here.
Throughout, for JHH-7 Internalization (MFI), Day 14 in mouse plasma: test concentration or dose not given here.
Throughout, for JHH-7 Internalization (MFI): test concentration or dose not given here.

Binder	Bmax (MFI) [8] [MFI]	Kd [8] [nM]	Bmax (MFI) [9] [MFI]	Kd [9] [nM]	Bmax (MFI) [10] [MFI]	Kd [10] [nM]	Bmax (MFI) [11] [MFI]	Kd [11] [nM]	Bmax (MFI) [12] [MFI]	Kd [12] [nM]	Bmax (MFI) [13] [MFI]	Kd [13] [nM]	JHH-5 Internalization (MFI) [14] [MFI]	JHH-7 Internalization (MFI) [14] [MFI]	Bmax (MFI) [15] [MFI]	Kd [15] [nM]	Bmax (MFI) [16] [MFI]	Kd [16] [nM]	JHH-5 Internalization (MFI), Day 0 in mouse plasma [17] [MFI]	JHH-5 Internalization (MFI), Day 14 in mouse plasma [17] [MFI]	further results
B1	–	–	–	–	–	–	–	–	–	–	–	–	–	–	–	–	–	–	–	–	Bmax [1]: 242; Kd [2]: 0.2 nM; Bmax [3]: 474; Bmax [4]: 4980; Kd [4]: 3.31 nM; Bmax [5]: 4350; Kd [5]: 0.2 nM; Kd [6]: 0.39 nM; Bmax [7]: 4570
B2	9620	0.16	6460	0.26	2930	0.16	10900	0.31	4740	0.2	2330	0.11	10000	8760	5490	0.07	12200	0.39	12800	11400	JHH-7 Internalization (MFI), Day 0 in mouse plasma [17]: 143 MFI; JHH-7 Internalization (MFI), Day 14 in mouse plasma [17]: 115 MFI
B3	8910	0.32	5640	0.15	2820	0.15	11000	0.23	4360	0.16	2280	0.11	9510	8920	4730	0.11	11600	0.44	10500	9980	JHH-7 Internalization (MFI), Day 0 in mouse plasma [17]: 131 MFI; JHH-7 Internalization (MFI), Day 14 in mouse plasma [17]: 106 MFI
B4	9390	0.15	5320	0.21	2850	0.13	9710	0.39	4910	0.19	2450	0.1	10700	9240	5450	0.07	12500	0.34	13300	11100	JHH-7 Internalization (MFI), Day 0 in mouse plasma [17]: 144 MFI; JHH-7 Internalization (MFI), Day 14 in mouse plasma [17]: 115 MFI
